The values below come from publication PMC5007037.

The target in this test is FcαRI (CD89) (human (endogenous in primary monocytes)) (UniProt P24071).
Chain of UniProt P24071 (P24071 22-287): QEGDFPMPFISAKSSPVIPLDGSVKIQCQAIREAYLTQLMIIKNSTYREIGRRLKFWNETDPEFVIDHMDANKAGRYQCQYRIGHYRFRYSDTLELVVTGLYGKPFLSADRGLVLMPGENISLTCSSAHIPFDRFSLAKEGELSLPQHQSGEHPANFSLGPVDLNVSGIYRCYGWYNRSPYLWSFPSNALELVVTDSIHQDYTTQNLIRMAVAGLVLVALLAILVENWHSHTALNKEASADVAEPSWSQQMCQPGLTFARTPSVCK

With CH31 dIgA2 (antibody), the percent blocking of IgA-mediated phagocytosis of 0.2 μm ConSgp140-conjugated beads by primary monocytes pre-incubated with 5 μg/ml anti-human CD89 mAb (MIP8a) came to 91.5%; the percent blocking of IgA-mediated phagocytosis of ConSgp140CFI-conjugated 1 μm beads by primary monocytes pre-incubated with anti-human CD89 mAb (MIP8a) at 1, 5 and 25 μg/ml (70%, 74%, 78%) stood at 78%.
